Test results reported in patent US20050049403A1 (CAMBRIDGE ANTIBODY TECHNOLOGY, published 2005).
Substitutions are numbered along the chain they refer to. Blank lines part the entries; values can stand above or below the binder they belong to.

Tests used:
recombinant human TGFβ1 [1] = molecular target: T1, recombinant human TGFβ1 (human, UniProt P01137 279-390); assay: radioreceptor assay, inhibition of 125I-TGFβ1 binding to A549 cells; concentration of antibody combining sites
T1 construct: mature; also called TGFbeta1
Experimental: (§1) Cells are seeded at 1-2×10^5 cells/ml/well into the wells of 24-well cluster plates and grown for 24 h in serum-free DMEM. Cell monlayers are washed twice with serum-free DMEM and 0.5 ml binding medium (DMEM/Hams F12 (Sigma D-6421) containing 0.1% (v/v) BSA added to each well.
(§2) Aliqouts of ¹²⁵I-TGFβ1 or TGFβ2 (70-90 TBq/mmol; Amersham International) at 20 pM are preincubated with antibody in binding medium at room temperature for 1 h. Duplicate samples of 0.5 ml of TGFβ/antibody mixtures are then added to the cell monlayers and are incubated at 37° C. for 1-2 h. Control wells contain TGFβ only. Unbound TGFβ is removed by washing 4 times with Hank's balanced salt solution containing 0.1% BSA. Cells are solubilised in 0.8 ml 25 mM Tris HCl pH 7.5, 10% glycerol, 1% Triton X-100 at room temperature for 20 min. The contents of each well are removed and ¹²⁵I measured in a gamma counter.

recombinant human TGFβ2 [2] = molecular target: T2, recombinant human TGFβ2 (human, UniProt P61812 303-414); assay: radioreceptor assay, inhibition of 125I-TGFβ2 binding to A549 cells; concentration of antibody combining sites
T2 construct: mature; also called TGFbeta2; rhTGFβ2
T2 sequence (looked up): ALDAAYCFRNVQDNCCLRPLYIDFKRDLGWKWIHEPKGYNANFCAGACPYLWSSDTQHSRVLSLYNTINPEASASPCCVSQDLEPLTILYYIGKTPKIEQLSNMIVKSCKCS
Experimental: as §1, §2

recombinant human TGFβ2 [3] = molecular target: T2, recombinant human TGFβ2; assay: BIACore, scFv
Experimental: (§3) The off-rates for binding to TGFβ1 or TGFβ2 of the single chain Fv fragments described in this example were determined as described by Karlsson et al (R. Karlsson et al, J. Immunol. Methods 145, 229-240, 1991). The results obtained are shown in Table 2, together with dissociation constants for those which have been determined.

recombinant human TGFβ2 [4] = molecular target: T2, recombinant human TGFβ2; assay: cell-based or functional assay
recombinant human TGFβ1 [5] = molecular target: T1, recombinant human TGFβ1; assay: BIACore, scFv injected over immobilised antigen
Experimental: (§4) The antibodies were also shown to be specific for TGFβ2 compared to TGFβ1 by relative binding to theBIACore sensor chips coated with the appropriate antigen. TGFβ1 and TGFβ2 were immobilised by amine coupling to Biosensor CM5 sensorchips (Pharmacia) according to the manufacturers instructions. […] The amount of TGFβ bound was assessed as the total increase in resonance units (RUs) over this period.

recombinant human TGFβ2 [6] = molecular target: T2, recombinant human TGFβ2; assay: BIACore, scFv injected over immobilised antigen
Experimental: as §4

recombinant human TGFβ1 [7] = molecular target: T1, recombinant human TGFβ1; assay: BIACore, scFv
Experimental: as §3

T1 sequence (P01137 279-390 limits assumed): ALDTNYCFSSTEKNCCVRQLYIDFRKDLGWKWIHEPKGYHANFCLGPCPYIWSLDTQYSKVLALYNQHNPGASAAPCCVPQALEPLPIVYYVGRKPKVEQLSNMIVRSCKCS

B1: 7A3 scFv (scFv)
scFv: QVQLVESGGGVVQPGRSLRLSCAASGFTFSSYGMHWVRQAPGKGLEWVAVISYDGSNKYYADSVKGRFTISRDNSKNTLYLQMNSLRAEDTAVYYCAKTGEYSGYDSSGVDVWGKGTTVTVSSGGGGSGGGGSGGGGSDIVMTQSPDSLAVSLGERATINCKSSQSLLYSYNKMNYLAWYQQKPGQPPKLLINWASTRESGVPDRFSGSGSGTDFTLTISSLQAEDVAVYYCQQYYATPLTFGHGTKVEIKR
notes: Light chain shuffle of 1-B2
IC50 (recombinant human TGFβ1 [1]): > 100 nM

B2: 11E6 IgG (antibody, V domains shown)
VH: EIQLVESGGGVVQPGRSLRLSCAASGFTFSSYAMHWVRQAPAKGLEWVAVISYDGSNKYYADSVKGRFTISRDNSKNTLYLQMNSLRAEDTAVYYCARAGLETTWGQGTLVTVSS
VL: EVVLTQSPSSLSASVGDRVTITCRASQGIGDDLGWYQQKPGKAPILLIYGTSTLQSGVPSRFSGSGSGTDFTLTINSLQPEDFATYYCLQDSNYPLTFGGGTRLEIKR
notes: its construction as a whole antibody is not described
IC50 (recombinant human TGFβ2 [2]): 1.6 nM

B4: 6A5 scFv (scFv)
scFv: EVQLVESGGGVVQPGRSLRLSCAASGFTFSSYGMHWVRQAPGKGLEWVAVIWYDGSNKYYADSVKGRFTISRDNSKNTLYLQMDSLRAEDTAVYYCGRTLESSLWGQGTLVTVSSGGGGSGGGGSGGGGSSSELTQDPAVSVALGQTVRITCQGDSLRSYYASWYQQKPGQAPVLVIYGKNNRPSGIPDRFAGSNSGNTASLTITGAQAEDEADYYCSSRDSSGNHVVFGGGTKLTVLG
notes: also called 6A5 single chain Fv
Kd (recombinant human TGFβ2 [3]): 0.7 nM | koff (recombinant human TGFβ2 [3]): 0.00014 s⁻¹ | I.C.50 in TF1 assay (neutralisation of TGFβ2 inhibition of TF1 cell proliferation) (recombinant human TGFβ2 [4]): 8 nM | increase in resonance units (recombinant human TGFβ1 [5]): 480 RU | increase in resonance units (recombinant human TGFβ2 [6]): 71 RU | IC50 (recombinant human TGFβ2 [2]): 1.5 nM

B5: 6H1 scFv (scFv)
scFv: EVQLVESGGGVVQPGRSLRLSCAASGFTFSSYGMHWVRQAPGKGLEWVAVIWYDGSNKYYADSVKGRFTISRDNSKNTLYLQMDSLRAEDTAVYYCGRTLESSLWGQGTLVTVSSGGGGSGGGGSGGGGSDVVMTQSPSSLSASVGDRVTITCRASQGISNYLAWYQQKPGKAPKLLIYKASTLESGVPSRFSGSGSGTEFTLTISSLQPEDFATYYCQQSYSTPRTFGQGTKVDIKR
koff (recombinant human TGFβ2 [3]): 0.0011 s⁻¹ | I.C.50 in TF1 assay (neutralisation of TGFβ2 inhibition of TF1 cell proliferation) (recombinant human TGFβ2 [4]): 1.5 nM | increase in resonance units (recombinant human TGFβ1 [5]): 686 RU | increase in resonance units (recombinant human TGFβ2 [6]): 77 RU | IC50 (recombinant human TGFβ2 [2]): 0.22 nM

B6: 31G9 scFv (scFv)
scFv: QVQLVQSGGGVVQPGRSLRLSCAASGFTFSSYGMHWVRQAPGKGLEWVAVISYDGSIKYYADSVKGRFTISRDNSKNTLYLQMNSLRAEDTAVYYCARTGEYSGYDTSGVELWGQGTTVTVSSGGGGSGGGGSGGGGSDIVMTQSPSTLSASVGDRVTITCRASQGISSWLAWYQQKPGRAPKVLIYKASTLESGVPSRFSGSGSGTDFTLTISSLQPEDFATYYCQQSYSTPWTFGQGTKLEIKR
notes: VH-linker-VL in pCANTAB6; also called 31G9 single chain Fv
Kd (recombinant human TGFβ1 [7]): 12 nM | koff (recombinant human TGFβ1 [7]): 0.0009 s⁻¹ | IC50 (recombinant human TGFβ1 [1]): 30 nM

Now from value to binder:

koff (recombinant human TGFβ2 [3]): 0.0021 s⁻¹ | I.C.50 in TF1 assay (neutralisation of TGFβ2 inhibition of TF1 cell proliferation) (recombinant human TGFβ2 [4]): 90 nM | increase in resonance units (recombinant human TGFβ1 [5]): 616 RU | increase in resonance units (recombinant human TGFβ2 [6]): 115 RU | IC50 (recombinant human TGFβ2 [2]): 3 nM
B3: 14F12 scFv (scFv)
scFv: EIQLVESGGGVVQPGRSLRLSCAASGFTFSSYAMHWVRQAPAKGLEWVAVISYDGSNKYYADSVKGRFTISRDNSKNTLYLQMNSLRAEDTAVYYCARAGLETTWGQGTLVTVSSSGGGGGSGGGGSGGGGSSSELTQDPAVSVALGQTVRITCQGDSLRNYYANWYQQKPGQAPVLVIYGKNNRPSGIPDRFSGSSSGNTASLTITGARAEDEGVYYCNSRDSSGAVFGGGTKLTVLG

koff (recombinant human TGFβ1 [7]): 0.0017 s⁻¹ | IC50 (recombinant human TGFβ1 [1]): ~60 nM
B7: CS39 scFv (scFv)
scFv: B6 scFv with I140V, T148S, S169N, W170Y, R180K, V184L, D208E, W234R, L242V, E243D
